No end group written: not given here.
B1: IIFWVKRGH (peptide)
peptide: IIFWVKRGH
notes: synthetic 9-mer variant; the entry already carries the change
B2: IIFWVQRGS (peptide)
peptide: IIFWVQRGS
notes: synthetic 9-mer variant; the entry already carries the changes
B3: IIFWVQRGN (peptide)
peptide: IIFWVQRGN
notes: as for B2
B4: WVKRGRKKL (peptide)
peptide: WVKRGRKKL
notes: synthetic 9-mer of the CD28-4-1BB junction; mutation: none
B5: WVKRGLKKL (peptide)
peptide: WVKRGLKKL
notes: as for B1
B6: WVLRGRKKL (peptide)
peptide: WVLRGRKKL
notes: as for B1
B7: WVQRGSKKL (peptide)
peptide: WVQRGSKKL
notes: as for B2
B8: WVSRGRKKL (peptide)
peptide: WVSRGRKKL
notes: as for B1
B9: WVKRGRKKS (peptide)
peptide: WVKRGRKKS
notes: as for B1
B10: WVQRGAKKL (peptide)
peptide: WVQRGAKKL
notes: as for B2
B11: WVHRGRKKL (peptide)
peptide: WVHRGRKKL
notes: as for B1
B12: Synthetic peptide AFIIFWVRR (K28R) (peptide)
peptide: AFIIFWVRR
notes: Synthetic 9-mer junction variant
B13: Synthetic peptide WVKRGRKKL (peptide)
peptide: WVKRGRKKL
B14: Synthetic peptide WVLRGRKKL (peptide)
peptide: WVLRGRKKL
B15: Synthetic peptide WVQRGAKKL (peptide)
peptide: WVQRGAKKL
B16: Synthetic peptide WVSRGRKKL (peptide)
peptide: WVSRGRKKL
B17: Synthetic peptide WVKRGLKKL (peptide)
peptide: WVKRGLKKL
B18: Synthetic peptide WVHRGRKKL (peptide)
peptide: WVHRGRKKL
B19: Synthetic peptide WVKRGRKKS (peptide)
peptide: WVKRGRKKS
B20: VAFIIFWVA (peptide)
peptide: VAFIIFWVA
notes: as for B1
B21: VAFIIFWVH (peptide)
peptide: VAFIIFWVH
notes: as for B1
B22: VAFIIFWVL (peptide)
peptide: VAFIIFWVL
notes: as for B1
B23: VAFIIFWVQ (peptide)
peptide: VAFIIFWVQ
notes: as for B1
B24: WVKRGRKKA synthetic peptide L34A (SEQ ID NO: 90) (peptide)
peptide: WVKRGRKKA
notes: Synthetic 9-mer from the CD28 transmembrane / 4-1BB costimulatory junction region of a CAR
B25: AFIIFWVKR (peptide)
peptide: AFIIFWVKR
notes: as for B4
B26: AFIIFWVQR (peptide)
peptide: AFIIFWVQR
notes: as for B1
B27: AFIIFWVLR (peptide)
peptide: AFIIFWVLR
notes: as for B1
B28: FWVKRGRKK (peptide)
peptide: FWVKRGRKK
notes: as for B4
B29: FWVKRGSKK (peptide)
peptide: FWVKRGSKK
notes: as for B1
B30: FWVQRGRKK (peptide)
peptide: FWVQRGRKK
notes: as for B1
B31: FWVQRGNKK (peptide)
peptide: FWVQRGNKK
notes: as for B2
B32: FWVKRGHKK (peptide)
peptide: FWVKRGHKK
notes: as for B1
B33: FWVSRGRKK (peptide)
peptide: FWVSRGRKK
notes: as for B1
B34: FWVARGRKK (peptide)
peptide: FWVARGRKK
notes: as for B1
B35: FWVQRGAKK (peptide)
peptide: FWVQRGAKK
notes: as for B2
B36: FWVHRGRKK (peptide)
peptide: FWVHRGRKK
notes: as for B1
B37: FWVQRGSKK (peptide)
peptide: FWVQRGSKK
notes: as for B2
B38: FWVLRGRKK (peptide)
peptide: FWVLRGRKK
notes: as for B1
B39: FWVKRGAKK (peptide)
peptide: FWVKRGAKK
notes: as for B1
B40: Synthetic peptide VAFIIFWVA (peptide)
peptide: VAFIIFWVA
B41: Synthetic peptide VAFIIFWVQ (peptide)
peptide: VAFIIFWVQ
B42: Synthetic peptide VAFIIFWVH (peptide)
peptide: VAFIIFWVH
B43: Synthetic peptide VAFIIFWVL (peptide)
peptide: VAFIIFWVL
B44: Synthetic peptide IIFWVKRGH (peptide)
peptide: IIFWVKRGH
B45: Synthetic peptide IIFWVQRGN (peptide)
peptide: IIFWVQRGN
B46: Synthetic peptide IIFWVQRGS (peptide)
peptide: IIFWVQRGS
B47: WVQRGNKKS synthetic peptide K28Q/L34S (SEQ ID NO: 91) (peptide)
peptide: WVQRGNKKS
modifications: not fully specified
notes: Synthetic 9-mer from the CD28/4-1BB junction region
B48: IFWVKRGRK (peptide)
peptide: IFWVKRGRK
notes: as for B4
B49: IFWVQRGSK (peptide)
peptide: IFWVQRGSK
notes: as for B2
B50: IFWVLRGRK (peptide)
peptide: IFWVLRGRK
notes: as for B1
B51: FIIFWVKRG (peptide)
peptide: FIIFWVKRG
notes: as for B4
B52: FIIFWVLRG (peptide)
peptide: FIIFWVLRG
notes: as for B1
B53: FIIFWVSRG (peptide)
peptide: FIIFWVSRG
notes: as for B1
B54: FIIFWVQRG (peptide)
peptide: FIIFWVQRG
notes: as for B1
B55: Synthetic peptide FWVSRGRKK (peptide)
peptide: FWVSRGRKK

Experiments:
[1] = target: T1, HLA-A*02:01 (human); assay: REVEAL MHC-peptide binding assay, recombinant HLA
T1 construct: recombinant MHC class I molecule incubated with the synthetic peptide (REVEAL, ProImmune)
Method: (§1) Specifically, assessment was of a series of overlapping 9-mer peptides derived from the sequence […] (set forth in SEQ ID NO: 7), which contains a portion of the CD28 transmembrane domain and 4-1BB costimulatory domain spanning the junction between the domains (bond joining the two amino acids noted in underline). In addition, a series of overlapping 9-mer peptides of each of a number of different variants of this portion also were assessed, each variant containing a mutation or mutations in this region as described in Example 2.
(§2) The various 9-mer overlapping peptides were synthesized and their purity tested by MALDI-TOF Mass Spectrometry.

[2] = target: T2, HLA-A*03:01 (human); assay: REVEAL MHC-peptide binding assay, recombinant HLA
T2 construct: recombinant MHC class I molecule incubated with the synthetic peptide (REVEAL, ProImmune)
Method: as §1, §2

[3] = target: T3, HLA-A*02:01 (recombinant MHC class I molecule) (human); assay: REVEAL MHC-peptide binding assay, recombinant MHC, score normalised to positive control = 100
T3 construct: Recombinant MHC used in the ProImmune REVEAL assay; also called HLA-A2:01
Method: as §1, §2

[4] = target: HLA-A*11:01 (recombinant MHC class I molecule) (human); assay: REVEAL MHC-peptide binding assay, recombinant HLA-A*11:01
Method: as §1, §2

[5] = target: HLA-B*08:01 (recombinant MHC class I molecule) (human); assay: REVEAL MHC-peptide binding assay, recombinant HLA-B*08:01
Method: as §1, §2

[6] = target: T4, HLA-B*08:01 (recombinant MHC class I molecule) (human); assay: REVEAL MHC-peptide binding assay, stabilisation of ternary complex with recombinant MHC
T4 construct: Recombinant MHC molecule of the ProImmune REVEAL assay
Method: as §1, §2

[7] = target: T5, HLA-A*11:01 (recombinant MHC class I molecule) (human); assay: as above
T5 construct: Recombinant MHC molecule of the ProImmune REVEAL assay
Method: as §1, §2

Binder | In Vitro Score [1] | In Vitro Score [2] | also measured
B1 | 5.3 % of positive control peptide | 26.6 % of positive control peptide | –
B2 | 22.4 % of positive control peptide | 4.5 % of positive control peptide | –
B3 | 13 % of positive control peptide | 3.6 % of positive control peptide | –
B4 | 1.4 % of positive control peptide | 13.1 % of positive control peptide | –
B5 | 24.5 % of positive control peptide | 10 % of positive control peptide | –
B6 | 2.4 % of positive control peptide | 0.7 % of positive control peptide | –
B7 | 4.4 % of positive control peptide | 1.2 % of positive control peptide | –
B8 | 2.3 % of positive control peptide | 2.1 % of positive control peptide | –
B9 | 3.9 % of positive control peptide | 0.9 % of positive control peptide | –
B10 | 3 % of positive control peptide | 2 % of positive control peptide | –
B11 | 1.6 % of positive control peptide | 3.4 % of positive control peptide | –
B12 | – | – | In Vitro Score [3]: 1.4 % of positive control peptide
B13 | – | – | In Vitro Score [4]: 4.8 score, % of positive control peptide; In Vitro Score [5]: 28.5 score, % of positive control peptide
B14 | – | – | In Vitro Score [4]: 3.2 score, % of positive control peptide; In Vitro Score [5]: 4 score, % of positive control peptide
B15 | – | – | In Vitro Score [4]: 3.8 score, % of positive control peptide; In Vitro Score [5]: 11.4 score, % of positive control peptide
B16 | – | – | In Vitro Score [4]: 4.4 score, % of positive control peptide; In Vitro Score [5]: 6.2 score, % of positive control peptide
B17 | – | – | In Vitro Score [4]: 22.1 score, % of positive control peptide; In Vitro Score [5]: 65.7 score, % of positive control peptide
B18 | – | – | In Vitro Score [4]: 5.6 score, % of positive control peptide; In Vitro Score [5]: 19.2 score, % of positive control peptide
B19 | – | – | In Vitro Score [4]: 6.7 score, % of positive control peptide; In Vitro Score [5]: 4.3 score, % of positive control peptide
B20 | 28.5 % of positive control peptide | 0 % of positive control peptide | –
B21 | 3.1 % of positive control peptide | 0.3 % of positive control peptide | –
B22 | 0.2 % of positive control peptide | 0 % of positive control peptide | –
B23 | 5.3 % of positive control peptide | 0.2 % of positive control peptide | –
B24 | – | – | In Vitro Score [6]: 3.1 % of positive control peptide; In Vitro Score [7]: 3.1 % of positive control peptide
B25 | 0.5 % of positive control peptide | 5.7 % of positive control peptide | –
B26 | 0.4 % of positive control peptide | 0.2 % of positive control peptide | –
B27 | 5.7 % of positive control peptide | 0.3 % of positive control peptide | –
B28 | 3.5 % of positive control peptide | 2.2 % of positive control peptide | –

Binder | In Vitro Score [1] | In Vitro Score [2] | also measured
B29 | 1.9 % of positive control peptide | 5.9 % of positive control peptide | –
B30 | 5.2 % of positive control peptide | 6.4 % of positive control peptide | –
B31 | 3.1 % of positive control peptide | 1.3 % of positive control peptide | –
B32 | 2.6 % of positive control peptide | 4.1 % of positive control peptide | –
B33 | 1.5 % of positive control peptide | 2.9 % of positive control peptide | –
B34 | 13.5 % of positive control peptide | 5 % of positive control peptide | –
B35 | 2.2 % of positive control peptide | 2.7 % of positive control peptide | –
B36 | 1.6 % of positive control peptide | 3.6 % of positive control peptide | –
B37 | 0.8 % of positive control peptide | 1.9 % of positive control peptide | –
B38 | 3.3 % of positive control peptide | 0.4 % of positive control peptide | –
B39 | 4.3 % of positive control peptide | 4.7 % of positive control peptide | –
B40 | – | – | In Vitro Score [4]: 2.8 score, % of positive control peptide; In Vitro Score [5]: 0 score, % of positive control peptide
B41 | – | – | In Vitro Score [4]: 3.9 score, % of positive control peptide; In Vitro Score [5]: 0.2 score, % of positive control peptide
B42 | – | – | In Vitro Score [4]: 12.3 score, % of positive control peptide; In Vitro Score [5]: 0 score, % of positive control peptide
B43 | – | – | In Vitro Score [4]: 0.2 score, % of positive control peptide; In Vitro Score [5]: 0 score, % of positive control peptide
B44 | – | – | In Vitro Score [4]: 19.5 score, % of positive control peptide; In Vitro Score [5]: 0.1 score, % of positive control peptide
B45 | – | – | In Vitro Score [4]: 29 score, % of positive control peptide; In Vitro Score [5]: 0 score, % of positive control peptide
B46 | – | – | In Vitro Score [4]: 16.9 score, % of positive control peptide; In Vitro Score [5]: 0.1 score, % of positive control peptide
B47 | – | – | In Vitro Score [6]: 0 % of positive control peptide; In Vitro Score [7]: 5 % of positive control peptide
B48 | 4.5 % of positive control peptide | 20.5 % of positive control peptide | –
B49 | 33.5 % of positive control peptide | 20.3 % of positive control peptide | –
B50 | 2.9 % of positive control peptide | 19.5 % of positive control peptide | –
B51 | 10.1 % of positive control peptide | 1.4 % of positive control peptide | –
B52 | 7.2 % of positive control peptide | 0.1 % of positive control peptide | –
B53 | 0.2 % of positive control peptide | 0.1 % of positive control peptide | –
B54 | 16.8 % of positive control peptide | 0.4 % of positive control peptide | –
B55 | – | – | In Vitro Score [4]: 6.3 score, % of positive control peptide; In Vitro Score [5]: 0 score, % of positive control peptide
